Measured values taken from paper PMC7035975 (Journal of molecular and cellular cardiology, 2019).

Biological target: the molecule itself
Assay: SDS-PAGE and immunoblot of the PLB pentamer

B1: L31A phospholamban mutant (untagged) (natural protein, human, UniProt P26678 1-52, looked up)
chain: MEKVQYLTRSAIRRASTIEMPQQARQKLQNAFINFCLILICLLLICIIVMLL
- stoichiometry N: 5
